The values below come from article doi:10.1101/478511 (bioRxiv, 2018).

This test has as its target WT His-BRCA1(1-500)-BARD1(27-327) heterodimer (UniProt P38398 1-500; Q99728 27-327). Put plainly: pull-down.

WT His-BRCA1(1-500)-BARD1(27-327) heterodimer, sequence (P38398 1-500, chain 1 of 2): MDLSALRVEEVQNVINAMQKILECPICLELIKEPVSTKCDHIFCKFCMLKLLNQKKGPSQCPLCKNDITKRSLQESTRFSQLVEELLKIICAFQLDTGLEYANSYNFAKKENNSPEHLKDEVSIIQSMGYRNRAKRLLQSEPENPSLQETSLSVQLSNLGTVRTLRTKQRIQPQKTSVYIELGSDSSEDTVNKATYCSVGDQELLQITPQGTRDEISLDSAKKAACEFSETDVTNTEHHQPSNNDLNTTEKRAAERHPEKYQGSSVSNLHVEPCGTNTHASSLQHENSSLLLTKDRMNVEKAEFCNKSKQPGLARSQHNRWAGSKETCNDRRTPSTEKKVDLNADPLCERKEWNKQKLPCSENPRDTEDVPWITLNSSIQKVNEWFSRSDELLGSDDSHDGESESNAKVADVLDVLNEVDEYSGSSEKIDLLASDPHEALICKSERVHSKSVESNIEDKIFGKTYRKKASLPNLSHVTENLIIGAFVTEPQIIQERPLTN
WT His-BRCA1(1-500)-BARD1(27-327) heterodimer, sequence (Q99728 27-327, chain 2 of 2): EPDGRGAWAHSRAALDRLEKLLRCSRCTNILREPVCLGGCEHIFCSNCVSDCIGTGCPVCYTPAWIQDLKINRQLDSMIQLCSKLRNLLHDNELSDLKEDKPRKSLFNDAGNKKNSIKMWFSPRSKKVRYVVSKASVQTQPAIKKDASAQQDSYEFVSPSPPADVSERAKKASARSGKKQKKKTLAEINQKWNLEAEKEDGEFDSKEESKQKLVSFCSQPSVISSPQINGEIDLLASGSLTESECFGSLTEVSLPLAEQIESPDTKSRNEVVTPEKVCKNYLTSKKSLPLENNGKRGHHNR

B1: Human recombinant RAD51 (Abcam) (natural protein)
chain: MAMQMQLEANADTSVEEESFGPQPISRLEQCGINANDVKKLEEAGFHTVEAVAYAPKKELINIKGISEAKADKILAEAAKLVPMGFTTATEFHQRRSEIIQITTGSKELDKLLQGGIETGSITEMFGEFRTGKTQICHTLAVTCQLPIDRGGGEGKAMYIDTEGTFRPERLLAVAERYGLSGSDVLDNVAYARAFNTDHQTQLLYQASAMMVESRYALLIVDSATALYRTDYSGRGELSARQMHLARFLRMLLRLADEFGVAVVITNQVVAQVDGAAMFAADPKKPIGGNIIAHASTTRLYLRKGRGETRICKIYDSPCLPEAEAMFAINADGVGDAKD
Consider B1, for which the binding result was “binds”.
